{"source": "patent US20180066058A1", "key": {"[1]": {"target": "mouse ICOS-mFc (Chimerigen) (mouse) (UniProt Q9WVS0)", "sequence (Q9WVS0 21-141 limits assumed, change not shown)": "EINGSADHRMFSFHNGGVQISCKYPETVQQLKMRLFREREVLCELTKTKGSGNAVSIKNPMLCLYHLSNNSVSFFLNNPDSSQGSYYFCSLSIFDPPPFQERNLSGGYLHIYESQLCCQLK", "experiment": "HTRF neutralisation of Alexa 647 mouse B7-H2 binding to mouse ICOS-mFc; hamster IgG, run with the IgG1 mAbs"}, "[2]": {"target": "mouse ICOS-mFc (Chimerigen) (mouse) (UniProt Q9WVS0)", "experiment": "HTRF neutralisation of Alexa 647 mouse B7-H2 binding to mouse ICOS-mFc; hamster IgG, run with the IgG1 mAbs; mean, n = 3"}, "[3]": {"target": "mouse ICOS-mFc (Chimerigen) (mouse) (UniProt Q9WVS0)", "experiment": "HTRF neutralisation of Alexa 647 mouse B7-H2 binding to mouse ICOS-mFc; hamster IgG, run with the IgG4.PE mAbs; mean, n = 3"}, "[4]": {"target": "human ICOS-mFc (Chimerigen) (human) (UniProt Q9Y6W8)", "sequence (Q9Y6W8 21-140, change not shown)": "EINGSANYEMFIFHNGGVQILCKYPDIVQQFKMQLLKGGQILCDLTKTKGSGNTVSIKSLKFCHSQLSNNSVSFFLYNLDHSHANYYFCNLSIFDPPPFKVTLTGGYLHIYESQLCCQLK", "experiment": "HTRF neutralisation of Alexa 647 human B7-H2 binding to human ICOS-mFc; hamster IgG, run with the IgG1 mAbs; mean, n = 4"}, "[5]": {"target": "human ICOS-mFc (Chimerigen) (human) (UniProt Q9Y6W8)", "experiment": "HTRF neutralisation of Alexa 647 human B7-H2 binding to human ICOS-mFc; hamster IgG, run with the IgG4.PE mAbs; mean, n = 4"}}}
{"substance": "Anti-ICOS antibody C398.4A (hamster IgG)", "values": [{"measurement": "IC50", "setting": "[1]", "value": 0.14, "unit": "nM"}, {"measurement": "IC50", "setting": "[2]", "value": 0.1, "unit": "nM"}, {"measurement": "IC50", "setting": "[3]", "value": 0.2, "unit": "nM"}, {"measurement": "IC50", "setting": "[4]", "value": 1.2, "unit": "nM"}, {"measurement": "IC50", "setting": "[5]", "value": 2.8, "unit": "nM"}]}
